Positions count from the first letter of the chain named.
B1: SC16.10: murine anti-DLL3 monoclonal antibody, sequences in FIGS. 3A and 3B (antibody, V domains shown)
VL: QIVLTQSPAIMSASLGERVTMTCTASSSVSSSYLHWYQQKPGSSPKLWIYSTSNLASGVPTRFSGSGSGTSYSLTISSMEAEDAATYYCHQYHRSPFTFGSGTKLEIK
VH: QVTLKESGPGILQSSQTLSLTCSFSGFSLSTSGMGVGWIRQPSGKGLEWLAHIWWDDVKRYNPVLKSRLTISKDTSSSQVFLKIASVDTADTATYYCARLVDDLYYFDYWGQGTTLTVSS
B2: SC16.13: murine anti-DLL3 monoclonal antibody, sequences in FIGS. 3A and 3B (antibody, V domains shown)
VL: QIVLTQSPALVSASPGEKVTMTCSASSSVSYMYWYQQKPRSSPKPWIYLTSNLASGVPARFSGSGSGTSYSLTISSMEAEDAATYYCQQWRSNPFTFGSGTKLEIK
VH: QVTLKESGPGILQPSQTLSLTCSFSGFSLSTSGMGVGWIRQPSGKGLEWLAHIWWDDVKRYNPALKSRLTISKDTSSSQVFLKIASVDTADTATYYCARIVSFDNDVVSAMDYWGQGTSVTVSS
B3: SC16.25: murine anti-DLL3 monoclonal antibody, sequences in FIGS. 3A and 3B (antibody, V domains shown)
VL: QIVLTQSPAIMSASPGEKVTMTCSASSSVSYMHWYQQKSGTSPKRWIYDSSKLASGVPARFSGSGSGTSYSLTISSMEAEDAATYYCQQWSSNPLTFGAGTKLELK
VH: QVTLKESGPGILQPSQTLSLTCSFSGFSLSTSGMGVGWIRQPSGEGLEWLTDIWWDDNKYYNPSLKSRLTISKDTSSNQVFLNITSVDTADTATYYCARRVNYYYDPYYAMDYWGQGTSVTVSS
B4: SC16.65: murine anti-DLL3 monoclonal antibody, sequences in FIGS. 3A and 3B (antibody, V domains shown)
VL: B2 VL with V11M, A25V, S26T, M77V, S92N, L103V
VH: B2 VH with H52L, T75A, V101A, F103Y, N105Y, S109Y, T121S
B5: SC16.4: murine anti-DLL3 monoclonal antibody; VL/VH SEQ ID NOS: 25 and 27 (antibody, listed as Mus musculus, V domains shown)
VH: QIQLVQSGPELKKPGETVKISCKASGYTFTDYSMHWVKQAPGKGLKWMGWINTETGEPGYADDFKGRFAFSLETSASTAYLQINNLKNEDTATYFCARYDGYAMDYWGQGTSVTVSS
VL: DIQMTQTTSSLSASLGDRVTISCRASQDISNYLNWYQQKPDGTVKLLIYYTSRLHSGVPSRFSGSGSGTDYSLTISNLELEDIATYFCQQGDMLPWTFGGGTKLEIK
B6: SC16.8: murine anti-DLL3 monoclonal antibody, sequences in FIGS. 3A and 3B (antibody, V domains shown)
VL: EIQMTQSPSSMSASLGDRITITCQATQDIVKNLNWYQQKPGKPPSFLIYYAIELAEGVPSRFSGSGSGSDYSLTISNLESEDFADYYCLQFYEFPFTFGAGTKLELK
VH: QAQLQQSGAELVRPGTSVKVSCKASGYAFTNYLIEWVKQRPGQGLEWIGVINPGTGGTNYNENFKGKATLTADKSSSTAYMQLSSLTSDDSAVYFCARSPYDYHEGAMDYWGQGTSVTVSS
B7: SC16.15: murine anti-DLL3 monoclonal antibody, sequences in FIGS. 3A and 3B (antibody, V domains shown)
VL: DIQMTQSPASLAASVGETVAITCRASENIYYNLAWYQQKQGKSPQLLIYTANSLEDGVPSRFSGSGSGTQYSLKINSMQPEDSATYFCKQAYDVPPTFGGGTKLEIK
VH: QVQLQQSGAELAKPGASVKMSCKASGYTFTRYWIHWIKQRPGQGLEWIGYINPTTVYTEFNQNFKDKATLTADKSSTTASMQLSSLTSEDSAVYYCARGGSNFFDYWGQGTTLTVSS
B8: SC16.34: murine anti-DLL3 monoclonal antibody, sequences in FIGS. 3A and 3B (antibody, V domains shown)
VL: SIVMTQTPKFLLVSAGDRVTITCKASQSVSNDVAWYQQKPGQSPKLLIYYASNRYSGVPDRFTGSGYGTDFTFTISTVQAEDLAVYFCQQDYSSPWTFGGGTKLEIK
VH: QIQLVQSGPELKRPGETVKISCKASGYTFTNYGMNWVKQAPGKGLKWMGWINTYTGDPTYADDFKGRFAFSLETSASTAYLQINNLKNEDTATYFCARIGGNSPSDYWGQGTSLTVSS
B9: SC16.56: murine anti-DLL3 monoclonal antibody, sequences in FIGS. 3A and 3B (antibody, V domains shown)
VL: B8 VL with A34V, S56T, T63A, T72S, S93T, K107R
VH: B8 VH with R13K, G49A, D57E, Y80S, N84I, G101D, N102S, S113T

Target: T1, murine DLL3 (Mus musculus, UniProt O88516)
T1 construct: expressed in transfected cells; host or cells: 293 (HEK-293T) cells
T1 sequence (O88516 33-585 isoform O88516-2 limits assumed): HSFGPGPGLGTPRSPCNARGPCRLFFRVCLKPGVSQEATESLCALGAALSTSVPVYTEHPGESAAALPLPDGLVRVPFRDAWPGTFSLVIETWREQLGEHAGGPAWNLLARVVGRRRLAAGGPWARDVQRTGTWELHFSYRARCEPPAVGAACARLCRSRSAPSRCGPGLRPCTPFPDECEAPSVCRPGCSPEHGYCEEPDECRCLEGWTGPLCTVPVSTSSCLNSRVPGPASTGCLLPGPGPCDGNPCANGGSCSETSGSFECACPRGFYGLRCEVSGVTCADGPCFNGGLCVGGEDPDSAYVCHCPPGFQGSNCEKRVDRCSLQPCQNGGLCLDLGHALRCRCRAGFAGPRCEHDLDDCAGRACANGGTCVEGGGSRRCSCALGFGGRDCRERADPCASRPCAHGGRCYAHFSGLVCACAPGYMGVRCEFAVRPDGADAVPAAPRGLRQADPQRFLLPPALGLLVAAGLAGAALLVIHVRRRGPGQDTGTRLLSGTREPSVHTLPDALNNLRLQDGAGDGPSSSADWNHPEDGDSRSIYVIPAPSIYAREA
Experiment: Flow cytometry on 293 cells over-expressing murine DLL3
Assay type: binding
Conditions: not given
Experimental: In addition to evaluating the exemplary modulators as set forth above, flow cytometry was performed in order to confirm that selected SC16 antibody modulators can immunospecifically associate with human DLL3 and to determine whether the same antibodies cross-react with cynomolgus, rat and/or murine DLL3. More particularly the exemplary murine antibodies were analyzed by flow cytometry using a FACSCanto II and 293 cells over-expressing murine, rat, cynomolgus or human DLL3. In some cases, exemplary murine modulators were analyzed by flow cytometry using a FACSCanto II and yeast cells displaying cynomolgus DLL3 using the methods described by Cochran et al. (J Immunol Methods. 287 (1-2):147-158 (2004).
Such results are not unexpected given that murine DLL3 is approximately 83% homologous with isoform 2 of human DLL3. It will be appreciated that this cross-reactivity may be advantageously exploited in the context of the instant invention through the use of animal models in drug discovery and development.

Molecule	cross-reactivity with murine DLL3
B1	did not appreciably associate with murine DLL3
B2	did not appreciably associate with murine DLL3
B3	did not appreciably associate with murine DLL3
B4	did not appreciably associate with murine DLL3
B5	cross-react with murine DLL3 to a greater or lesser extent
B6	cross-react with murine DLL3 to a greater or lesser extent
B7	cross-react with murine DLL3 to a greater or lesser extent
B8	cross-react with murine DLL3 to a greater or lesser extent
B9	cross-react with murine DLL3 to a greater or lesser extent

Target: T2, human DLL3 antigen (Homo sapiens, UniProt Q9NYJ7)
T2 sequence (Q9NYJ7 27-618): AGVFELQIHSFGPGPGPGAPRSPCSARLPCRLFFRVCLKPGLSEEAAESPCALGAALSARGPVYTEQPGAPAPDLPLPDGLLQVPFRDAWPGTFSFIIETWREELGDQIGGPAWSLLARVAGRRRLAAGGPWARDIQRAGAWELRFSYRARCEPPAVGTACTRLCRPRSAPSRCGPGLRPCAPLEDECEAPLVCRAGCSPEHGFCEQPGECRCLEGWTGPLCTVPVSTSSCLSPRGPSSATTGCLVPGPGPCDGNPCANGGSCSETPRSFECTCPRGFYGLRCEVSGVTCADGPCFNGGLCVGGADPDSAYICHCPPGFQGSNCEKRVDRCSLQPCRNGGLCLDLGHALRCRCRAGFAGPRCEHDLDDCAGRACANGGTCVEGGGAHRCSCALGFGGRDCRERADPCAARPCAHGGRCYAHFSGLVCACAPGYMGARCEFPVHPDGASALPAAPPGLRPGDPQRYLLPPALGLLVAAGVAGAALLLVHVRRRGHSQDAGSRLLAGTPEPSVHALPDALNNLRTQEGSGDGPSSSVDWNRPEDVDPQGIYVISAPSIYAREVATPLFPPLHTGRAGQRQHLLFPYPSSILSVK
Experiment: Surface plasmon resonance (Biacore 2000), humanized versus chimeric constructs
Conditions: concentration series of 25 and 12.5 nM human DLL3 antigen, 1:1 Langmuir binding model, estimated, read-out: KD of antibody binding to human DLL3 antigen
Experimental: Besides the aforementioned assays, humanized constructs hSC16.13, hSC16.15, hSC16.25, hSC16.34 and hSC16.56 from Example 4 were analyzed to determine if the CDR grafting process had appreciably altered their binding characteristics. In this respect the humanized constructs (CDR grafted) were compared with “traditional” chimeric antibodies comprising the murine parent (or donor) heavy and light chain variable domains and a human constant region substantially equivalent to that used in the humanized constructs. With these constructs surface plasmon resonance (SPR) was conducted using a Biacore 2000 (GE Healthcare) to identify any subtle changes in rate constants brought about by the humanization process.
Based on a concentration series of 25 and 12.5 nM of human DLL3 antigen and using a 1:1 Langmuir binding model, the KD of the SC16.15 antibody binding to human DLL3 antigen was estimated to be 0.2 nM.

Molecule	Kd [pM]
B7	~200
